In publication PMC7381364:

Assays:
[1] = biological target: IL-18BP (Homo sapiens) (UniProt O95998); details: cited from earlier work
[2] = biological target: mouse IL-18 binding protein (mouse) (UniProt Q9Z0M9); assay: SPR
mouse IL-18 binding protein (mouse), sequence (Q9Z0M9 31-193): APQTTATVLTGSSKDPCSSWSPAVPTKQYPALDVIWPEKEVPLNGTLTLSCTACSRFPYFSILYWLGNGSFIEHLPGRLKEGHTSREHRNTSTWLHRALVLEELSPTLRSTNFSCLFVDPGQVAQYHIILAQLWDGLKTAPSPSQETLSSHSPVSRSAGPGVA

IL-18BP (Homo sapiens), sequence (O95998 31-194): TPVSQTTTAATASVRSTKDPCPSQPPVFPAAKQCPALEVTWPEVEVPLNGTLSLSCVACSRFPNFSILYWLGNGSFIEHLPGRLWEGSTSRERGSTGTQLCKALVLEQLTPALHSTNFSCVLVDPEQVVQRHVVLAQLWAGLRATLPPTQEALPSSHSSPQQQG
IL-18, sequence (Q14116 37-193): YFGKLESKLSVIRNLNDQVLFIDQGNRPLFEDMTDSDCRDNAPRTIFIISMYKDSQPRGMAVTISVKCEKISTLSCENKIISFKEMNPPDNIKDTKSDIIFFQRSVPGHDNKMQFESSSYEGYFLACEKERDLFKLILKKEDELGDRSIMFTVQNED

Kd [2]	Substance	Kd [1]
	IL-18 (from UniProt Q14116)	< 0.001 µM
> 10 µM	decoy-resistant IL-18 variant CS2 (consensus sequence 2), DR-18 (from UniProt P70380 37-192) (ligand)	
